Source: patent publication US20230250160A1 (HOBER BIOTECH, published 2023)
Where two headings read alike, the source gives them in different places.

Assays:
[1] = molecular target: T1, Human Serum Albumin (human, UniProt P02768 25-609); experiment: SPR Biacore T200, HSA on CM5 chip, ADAPT injected, 1:1 fit
T1 construct: also called HSA
Procedure: (§1) Sensor-based binding analysis was performed using a Biacore T200 system (GE Healthcare, Stockholm, Sweden). All analyses were conducted using CM-5 sensor chips coated with the target antigen, another irrelevant antigen and HSA. One surface was left as reference. Binding analysis was performed in PBS-T at 25° C. The ADAPT variants were diluted in PBS-T to 500 nM, 250 nM, 125 nM, 62.5 nM and 31.25 nM. The samples were injected at a flow rate of 30 ul/min for 120 s followed by injection of PBS-T for 240 s to monitor the dissociation. Surfaces were regenerated with 10 mM HCl. Kinetic parameters were determined using the Biacore Insight Evaluation software, assuming a 1:1 binding.

[2] = molecular target: T1, Human Serum Albumin; experiment: as above; remark: listed apart in the source
Procedure: as §1

[3] = molecular target: T2, angiogenin (human (produced in the Human Secretome …, UniProt P03950 25-147)); experiment: SPR Biacore T200, target on CM5 chip, ADAPT injected, 1:1 fit
T2 construct: also called bANG
Procedure: as §1
(§2) Variants with sufficient alpha helical structure as well as monomeric elution profiles on the SEC column were further analyzed for binding towards their target protein as well as to HSA. The binding towards the target antigen used in the selection was measured by a multi-cycle analysis using SPR, showing that several binders had affinities in the μM-pM range. […] After target binding had been established, the variants were also evaluated for their ability to simultaneously bind to HSA. This was done either through an SPR capture assay or an experiment where the ADAPT was pre-incubated with saturating conditions of HSA before the binding towards the target was analyzed. […] In total, thirteen of the characterized binders from the selections towards TNFα, PSA, ANG, MYDGF and Insulin could bind both HSA and its target antigen simultaneously. FIG. 5 contains sensorgrams for the thirteen variants in the capture assay.

[4] = molecular target: T2, angiogenin; experiment: as above; remark: listed apart in the source
Procedure: as §1

[5] = molecular target: T3, Prostate Specific Antigen (human (produced in the Human Secretome …, UniProt P07288 18-261, limits assumed)); experiment: as above
T3 construct: also called PSA; bPSA
Procedure: as §1, §2

[6] = molecular target: T3, Prostate Specific Antigen; experiment: as above; remark: listed apart in the source
Procedure: as §1

[7] = molecular target: T4, renin (human (produced in the Human Secretome …, UniProt P00797 24-406, limits assumed)); experiment: as above
T4 construct: also called bREN
T4 sequence (looked up): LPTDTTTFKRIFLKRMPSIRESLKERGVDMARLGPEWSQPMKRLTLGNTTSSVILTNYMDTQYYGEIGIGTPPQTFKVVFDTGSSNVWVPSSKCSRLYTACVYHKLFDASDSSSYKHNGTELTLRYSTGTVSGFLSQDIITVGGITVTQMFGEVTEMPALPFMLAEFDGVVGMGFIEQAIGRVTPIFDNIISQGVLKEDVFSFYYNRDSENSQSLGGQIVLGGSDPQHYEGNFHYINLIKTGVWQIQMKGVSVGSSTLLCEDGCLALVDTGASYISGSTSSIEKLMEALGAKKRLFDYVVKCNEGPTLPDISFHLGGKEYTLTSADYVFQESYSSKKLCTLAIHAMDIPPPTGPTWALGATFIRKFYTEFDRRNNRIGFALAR
Procedure: as §1, §2

[8] = molecular target: T4, renin; experiment: as above; remark: listed apart in the source
Procedure: as §1

[9] = molecular target: T5, Human recombinant Insulin (human, UniProt P01308 25-54; P01308 90-110, limits assumed); experiment: as above
T5 construct: also called bInsulin
Procedure: as §1, §2

[10] = molecular target: T5, Human recombinant Insulin; experiment: as above; remark: listed apart in the source
Procedure: as §1

[11] = molecular target: T6, Her2 (UniProt P04626 23-652, limits assumed); experiment: SPR (Biacore), ADAPT injected alone at 31.25-500 nM over immobilised Her2 (irrelevant target)
T6 construct: also called irrelevant target Her2
Procedure: as §1
Variants with sufficient alpha helical structure as well as monomeric elution profiles on the SEC column were further analyzed for binding towards their target protein as well as to HSA. The binding towards the target antigen used in the selection was measured by a multi-cycle analysis using SPR, showing that several binders had affinities in the μM-pM range. […] After target binding had been established, the variants were also evaluated for their ability to simultaneously bind to HSA. This was done either through an SPR capture assay or an experiment where the ADAPT was pre-incubated with saturating conditions of HSA before the binding towards the target was analyzed. […]

[12] = molecular target: T7, myeloid-derived growth factor (human (produced in the Human Secretome …, UniProt Q969H8 32-173, limits assumed)); experiment: SPR Biacore T200, target on CM5 chip, ADAPT injected, 1:1 fit
T7 construct: also called MYDGF; bMYDGF
T7 sequence (looked up): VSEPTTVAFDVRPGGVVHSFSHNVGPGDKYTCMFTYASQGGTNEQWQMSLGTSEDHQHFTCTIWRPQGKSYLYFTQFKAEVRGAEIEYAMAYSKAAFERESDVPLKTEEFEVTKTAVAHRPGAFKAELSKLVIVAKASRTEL
Procedure: as §1, §2

[13] = molecular target: T7, myeloid-derived growth factor; experiment: as above; remark: listed apart in the source
Procedure: as §1

T5 sequence (P01308 25-54 limits assumed, chain 1 of 2): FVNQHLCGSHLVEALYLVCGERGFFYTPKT
T5 sequence (P01308 90-110 limits assumed, chain 2 of 2): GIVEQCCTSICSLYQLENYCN
T1 sequence (P02768 25-609 limits assumed): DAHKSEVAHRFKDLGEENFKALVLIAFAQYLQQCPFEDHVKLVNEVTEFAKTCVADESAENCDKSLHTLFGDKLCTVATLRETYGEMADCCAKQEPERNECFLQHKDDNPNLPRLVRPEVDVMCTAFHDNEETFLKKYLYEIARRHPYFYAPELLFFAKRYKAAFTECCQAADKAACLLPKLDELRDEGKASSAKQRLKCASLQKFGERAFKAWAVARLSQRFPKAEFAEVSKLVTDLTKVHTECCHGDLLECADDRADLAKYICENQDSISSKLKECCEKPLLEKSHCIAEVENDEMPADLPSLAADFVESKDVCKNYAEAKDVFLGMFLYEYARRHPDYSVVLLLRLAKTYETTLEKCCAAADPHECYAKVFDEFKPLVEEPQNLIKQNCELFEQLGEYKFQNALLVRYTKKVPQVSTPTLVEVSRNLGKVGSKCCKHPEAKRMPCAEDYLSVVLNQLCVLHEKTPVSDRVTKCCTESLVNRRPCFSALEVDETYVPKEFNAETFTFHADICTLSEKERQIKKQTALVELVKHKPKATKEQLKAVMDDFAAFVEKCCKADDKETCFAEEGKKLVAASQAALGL
T3 sequence (P07288 18-261 limits assumed): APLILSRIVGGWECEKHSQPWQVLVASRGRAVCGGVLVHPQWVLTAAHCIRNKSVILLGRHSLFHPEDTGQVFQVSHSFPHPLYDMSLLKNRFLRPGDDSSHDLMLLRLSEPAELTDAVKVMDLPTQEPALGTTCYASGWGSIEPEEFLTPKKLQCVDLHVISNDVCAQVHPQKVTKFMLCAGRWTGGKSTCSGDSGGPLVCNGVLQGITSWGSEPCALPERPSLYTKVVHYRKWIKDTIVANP
T2 sequence (P03950 25-147 limits assumed): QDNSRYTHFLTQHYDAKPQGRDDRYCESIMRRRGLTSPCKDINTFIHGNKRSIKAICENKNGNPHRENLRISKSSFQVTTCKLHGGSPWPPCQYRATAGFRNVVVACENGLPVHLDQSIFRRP

Binder: LWAAKDDADWELWQYGVSDFYRALIWKAKTVEGVEALKLHILAALP (designed binder, also called ANG_6) [ADAPT variant ANG_06]
- Kd [1]: 1.1 nM
- Kd [2]: 1.1 nM
- koff [2]: 2.6e-05 s⁻¹
- kon [2]: 24000 M⁻¹ s⁻¹
- Kd [3]: 4.9 nM
- Kd [4]: 4.9 nM
- koff [4]: 0.00032 s⁻¹
- kon [4]: 65000 M⁻¹ s⁻¹

Binder: LHEAKDWADYELWSYGVSDFYRALIWKAKTVEGVEALKLHILAALP (designed binder) [ADAPT variant ANG_13]
- Kd [1]: 2.8 nM
- Kd [2]: 2.8 nM
- koff [2]: 6.8e-05 s⁻¹
- kon [2]: 25000 M⁻¹ s⁻¹
- Kd [3]: 0.028 nM
- Kd [4]: 0.028 nM
- koff [4]: 2.9e-06 s⁻¹
- kon [4]: 110000 M⁻¹ s⁻¹

Binder: LFRAKVWAVWELDQYGVSDFYDELIWKAKTVEGVEALKLHILAALP (designed binder) [ADAPT variant PSA_05]
- Kd [1]: 3.3 nM
- Kd [2]: 3.3 nM
- koff [2]: 0.0003 s⁻¹
- kon [2]: 92000 M⁻¹ s⁻¹
- Kd [5]: 300 nM
- Kd [6]: 300 nM
- koff [6]: 0.059 s⁻¹
- kon [6]: 200000 M⁻¹ s⁻¹

Binder: LMWAKAEAAIELVDYGVSDFYQYLISKAKTVEGVEALKLHILAALP (designed binder) [ADAPT variant REN_40]
- Kd [1]: 5.5 nM
- Kd [2]: 5.5 nM
- koff [2]: 0.00064 s⁻¹
- kon [2]: 120000 M⁻¹ s⁻¹
- Kd [7]: 410 nM
- Kd [8]: 410 nM
- koff [8]: 0.0035 s⁻¹
- kon [8]: 8700 M⁻¹ s⁻¹

Binder: LAIAKAYAQYELSFYGVSDFYRELIVKAKTVEGVEALKLHILAALP (designed binder, also called INS_02) [ADAPT variant Insulin_02]
- Kd [1]: 1.5 nM
- Kd [2]: 1.5 nM
- koff [2]: 0.00093 s⁻¹
- kon [2]: 640000 M⁻¹ s⁻¹
- Kd [9]: 670 nM
- Kd [10]: 670 nM
- koff [10]: 0.12 s⁻¹
- kon [10]: 180000 M⁻¹ s⁻¹
- binding result [11]: no binding (tested: 500 nM)

Binder: LYHAKWMASLELAKYGVSDFYWNLISKAKTVEGVEALKLHILAALP (designed binder) [ADAPT variant REN_01]
- Kd [1]: 23 nM
- Kd [2]: 23 nM
- koff [2]: 0.00027 s⁻¹
- kon [2]: 12000 M⁻¹ s⁻¹
- Kd [7]: 76 nM
- Kd [8]: 76 nM
- koff [8]: 0.0024 s⁻¹
- kon [8]: 32000 M⁻¹ s⁻¹

Binder: LTVAKFWALTELQEYGVSDFYANLITKAKTVEGVEALKLHILAALP (designed binder) [ADAPT variant PSA_01]
- Kd [1]: 1.1 nM
- Kd [2]: 1.1 nM
- koff [2]: 0.0012 s⁻¹
- kon [2]: 1.1e+06 M⁻¹ s⁻¹
- Kd [5]: 280 nM
- Kd [6]: 280 nM
- koff [6]: 0.1 s⁻¹
- kon [6]: 360000 M⁻¹ s⁻¹

Binder: LWWAKVWAVAELQKYGVSDFYFKLIDKAKTVEGVEALKLHILAALP (designed binder) [ADAPT variant MYDGF_07]
- Kd [1]: 4.7 nM
- Kd [2]: 4.7 nM
- koff [2]: 0.00014 s⁻¹
- kon [2]: 30000 M⁻¹ s⁻¹
- Kd [12]: 230 nM
- Kd [13]: 230 nM
- koff [13]: 0.082 s⁻¹
- kon [13]: 350000 M⁻¹ s⁻¹

Binder: LWWAKVSAIKELQAYGVSDFYYMLITKAKTVEGVEALKLHILAALP (designed binder) [ADAPT variant MYDGF_08]
- Kd [1]: 12 nM
- Kd [2]: 12 nM
- koff [2]: 0.00028 s⁻¹
- kon [2]: 23000 M⁻¹ s⁻¹
- Kd [12]: 180 nM
- Kd [13]: 180 nM
- koff [13]: 0.18 s⁻¹
- kon [13]: 1e+06 M⁻¹ s⁻¹
